The results in this text go back to patent US9085636B2, “CETP fragments” (AFFIRIS AG, priority 2011, dated 2015).

For test [1], the system named is respective peptides coupled to bovine serum albumin (BSA). Kind of test: Peptide ELISA: anti-peptide titers of sera from vaccinated mice. The conditions noted are these: median values (n = 5); Balb/c mice s.c. three times 15 μg net peptide coupled to KLH, Alum; titre = serum dilution at 50% of ODmax. Format: in vivo. As to the method:
(§1) The peptides were conjugated via the heterobifunctional linker GMBS (4-Maleimidobutyric acid N-hydroxysuccinimide ester) to KLH (Keyhole Limpet Hemocyanin).
(§2) 15 μg of the peptides were suspended with aluminum hydroxide (end concentration of aluminum hydroxide was 0.2%). As buffer mannitol/phosphate was used.
(§3) 5 Balb/c mice were subcutaneously immunized. Mice had access to food and water ad libitum and were kept under a 12 h light/dark cycle. Age of mice at the beginning of experiments was usually 8 to 10 weeks.
(§4) Mice were injected three times in 2 week intervals with 15 μg of net peptide coupled to KLH and adsorbed to Alum as adjuvant in a volume of 1 ml in total via the s.c. route.
(§5) Blood was taken approximately 2 weeks after the final injection.
(§6) To determine the immunogenicity of the vaccines, 96-well Nunc-Maxisorb plates were coated with 1 μM of the respective peptides coupled to bovine serum albumin (BSA) in 0.1 M NaHCO3, pH 9.2-9.4. An irrelevant peptide was used as negative control. KLH was included as positive control and coated at a concentration of 1 μg/ml. Unspecific binding was blocked by incubation with blocking buffer (5% BSA in PBS). Appropriate serum dilutions were added to the wells, serially diluted 1:2 fold and incubated for approximately 1 hour at 37° C. On every ELISA plate a standard serum was included as internal control. Bound antibodies were detected by incubation with biotinylated goat anti-mouse IgG, followed by horseradish peroxidase coupled to Streptavidin. As substrate ABTS was added and the optical density (OD) at 405 nm was measured in a Microwell plate-reader. The titres were defined as the dilution of the serum where 50% of the ODmax in the assay are reached.

In test [2] the target is T1, recombinantly expressed human CETP N-terminally fused to GST (GST-CETP) (Homo sapiens, UniProt P11597).
T1 construct: not only antibodies directed to the peptide itself but also to the mature CETP protein; GST (N); made in house
T1 sequence (P11597 18-493): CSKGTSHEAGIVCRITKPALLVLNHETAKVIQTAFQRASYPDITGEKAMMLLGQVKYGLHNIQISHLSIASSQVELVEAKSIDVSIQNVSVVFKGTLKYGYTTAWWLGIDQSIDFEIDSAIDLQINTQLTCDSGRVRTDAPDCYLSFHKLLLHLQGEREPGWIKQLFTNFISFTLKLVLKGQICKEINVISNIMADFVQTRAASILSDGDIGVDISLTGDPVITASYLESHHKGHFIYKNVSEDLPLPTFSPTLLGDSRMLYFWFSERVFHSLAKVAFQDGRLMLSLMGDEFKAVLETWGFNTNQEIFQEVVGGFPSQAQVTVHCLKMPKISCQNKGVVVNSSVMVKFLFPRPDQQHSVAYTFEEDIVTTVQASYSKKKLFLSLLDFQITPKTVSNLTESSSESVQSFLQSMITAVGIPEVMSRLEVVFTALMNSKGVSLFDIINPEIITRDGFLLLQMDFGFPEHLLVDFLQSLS
The experiment in a line: Protein ELISA: anti-protein titers of sera from vaccinated mice. It counts as in vivo, Balb/c mice. The conditions noted are these: for anti-protein titers: median values (n = 5), Balb/c mice s.c. three times 15 μg net peptide coupled to KLH, Alum, GST-CETP ELISA, titre = serum dilution at 50% of ODmax. The method, then: as §1, §2, §3, §4, §5, §6
The antibodies induced by the vaccination were tested for their ability to bind to recombinantly expressed human CETP N-terminally fused to GST (“GST-CETP”) using the protocol described under “peptide ELISA”.

In test [3] the target is T2, CETP activity of human serum (Homo sapiens, UniProt P11597).
T2 construct: Human serum was used as CETP source; from tissue; host or cells: human serum
T2 sequence (P11597 18-493): T1 sequence (P11597 18-493)
The experiment in a line: CETP activity inhibition assay (Roar kit) with sera from vaccinated mice. Format: biochemical. The conditions noted are these: n=5 mice per group; human serum as CETP source mixed with same amount of serum from vaccinated mice. The method, then: as §3, §4, §5
CETP activity was determined with the Roar CETP activity assay kit (RB-CETP; Roar Biomedical) by measuring the transfer of a fluorescently labeled substrate according to the protocol provided by the manufacturer. […] Human serum was used as CETP source and was mixed with the same amount of serum from vaccinated mice together with donor and acceptor particles (components of the CETP activity assay kit).
Mouse sera containing CETP-inhibiting antibodies lead to a decrease of the signal in this assay. Sera from mice injected with irrelevant peptide served as negative control.

No end group written: not given here.

For the substance 1 (YTTAWWLGIDQS) [compound 1], in test [1], the anti-peptide titers was 70,000. In test [2], the anti-protein titers is 800. Besides, in test [3], the “no. of mice with antibodies inhibiting CETP activity” value is given as 3 of 5.

Turning to 2 (KAMMLLGQV) [compound 2], the anti-peptide titers in test [1] is 66,000. The anti-protein titers in test [2] came to 0.

For 3 (LHLQGEREPGWIKQ) [compound 3], the anti-peptide titers in test [1] was 97,000. In addition, the anti-protein titers in test [2] amounted to 50.

Regarding 4 (DEFKAVLETWG) [compound 4], in test [1], the anti-peptide titers is 140,000. In test [2], the anti-protein titers is listed as 0.

For 5 (GFNTNQEIFQEVVGGFP) [compound 5], in test [1], the anti-peptide titers is on record as 100,000. Moreover, the anti-protein titers in test [2] was 100.

With 6 (ESIQSFLQSMITA) [compound 6], the anti-peptide titers in test [1] was 69,000. Also, the anti-protein titers in test [2] was 0.

As for 7 (YGYTTAWWLGIDQSID) [compound 7], the anti-peptide titers in test [1] is reported as 33,000. In addition, the anti-protein titers in test [2] is given as 500. Also, the “no. of mice with antibodies inhibiting CETP activity” value in test [3] was 3 of 5.

Take 8 (TTAWWLGIDQS) [compound 8]: the anti-peptide titers in test [1] was 89,000. In test [2], the anti-protein titers is reported as 1,200. Moreover, in test [3], the “no. of mice with antibodies inhibiting CETP activity” value is listed as 4 of 5.

As for 9 (TAWWLGIDQS) [compound 9], the anti-peptide titers in test [1] is 173,000. Further, the anti-protein titers in test [2] is reported as 2,200. Moreover, in test [3], the “no. of mice with antibodies inhibiting CETP activity” value was 4 of 5.

Take 10 (AWWLGIDQS) [compound 10]: the anti-peptide titers in test [1] is listed as 191,000. In addition, in test [2], the anti-protein titers is listed as 1,700. In addition, in test [3], the “no. of mice with antibodies inhibiting CETP activity” value is 5 of 5.

Regarding 11 (WWLGIDQS) [compound 11], in test [1], the anti-peptide titers is recorded as 330,000. Moreover, the anti-protein titers in test [2] is 1,100. Also, the “no. of mice with antibodies inhibiting CETP activity” value in test [3] is listed as 5 of 5.

12 (WLGIDQS) [compound 12]: the anti-peptide titers in test [1] is reported as 153,000. In addition, the anti-protein titers in test [2] was 0.

13 (YTTAWWLGIDQ) [compound 13]: the anti-peptide titers in test [1] is listed as 143,000. In addition, the anti-protein titers in test [2] is reported as 1,200. Besides, the “no. of mice with antibodies inhibiting CETP activity” value in test [3] is reported as 1 of 5.

Turning to 14 (YTTAWWLGID) [compound 14], the anti-peptide titers in test [1] was 630,000. Moreover, the anti-protein titers in test [2] is 600. Further, the “no. of mice with antibodies inhibiting CETP activity” value in test [3] was 1 of 5.

As for 15 (YTTAWWLGI) [compound 15], the anti-peptide titers in test [1] is 111,000. Besides, in test [2], the anti-protein titers is reported as 300. Also, in test [3], the “no. of mice with antibodies inhibiting CETP activity” value was 0 of 5.

As for 16 (YTTAWWLG) [compound 16], the anti-peptide titers in test [1] was 74,000. Besides, in test [2], the anti-protein titers stood at 0.

For the substance 17 (YTTAWWL) [compound 17], in test [1], the anti-peptide titers is on record as 94,000. The anti-protein titers in test [2] was determined as 0.

For the substance 18 (TTAWWLGIDQ) [compound 18], the anti-peptide titers in test [1] is reported as 216,000. Also, the anti-protein titers in test [2] is on record as 900. The “no. of mice with antibodies inhibiting CETP activity” value in test [3] is on record as 4 of 5.

Regarding 19 (TTAWWLGID) [compound 19], the anti-peptide titers in test [1] was 114,000. Moreover, the anti-protein titers in test [2] is 1,300. In addition, the “no. of mice with antibodies inhibiting CETP activity” value in test [3] was 3 of 5.

For the substance 20 (TTAWWLGI) [compound 20], the anti-peptide titers in test [1] was 124,000. Besides, in test [2], the anti-protein titers stood at 300.

For 21 (TAWWLGI) [compound 21], the anti-peptide titers in test [1] is reported as 99,000. In addition, the anti-protein titers in test [2] is 0.

On to 22 (FPRPDQQHSV) [compound 22], for which, in test [1], the anti-peptide titers was 229,000. Further, the anti-protein titers in test [2] is 0.

Turning to “C-YTTAWWLGIDQS (CYTTAWWLGIDQS; also: conjugated to KLH carrier) [SEQ ID No. 1, CETP fragment AA101-112, N-terminal cysteine, conjugated to KLH]”, the “formation of antibodies directed to mature CETP protein (in words)” value in test [2] (vaccinated Balb/c mice, protein ELISA) is listed as “leads to the formation of not only antibodies directed to the peptide itself but also to the mature CETP protein”.
